Publication PMC5770610, “Structure and function of urea amidolyase” (Bioscience Reports, 2018)
Where a chain is given by its changes, count along the chain named. Names may count otherwise.

What was measured:
[1] = target: the molecule itself; assay: SEC; analytical gel filtration, Superose 6 HR column; 0.25 mg protein injected; 20 mM Tris/HCl pH 8.0, 200 mM NaCl; calibrated with standards of 29-669 kDa
[2] = substrate: NC(=O)NC(=O)O; assay: glutamate dehydrogenase-coupled NADH assay of ammonium; format: biochemical, Kluyveromyces lactis; settings: AH activity, 6 mM MgCl2, 20 mM KCl, pH 8.0, substrate as potassium salt
Excerpt: (§1) glutamate dehydrogenase-coupled NADH assay of ammonium on KlUA

[3] = substrate: NC(N)=O; assay: as above; format: biochemical, Kluyveromyces lactis; settings: overall UA activity, 5 mM ATP, 12.5 mM bicarbonate, 11 mM MgCl2, 20 mM KCl
Excerpt: as §1

[4] = pH 8.0, mutation at AH dimer interface
[5] = pH 8.0, mutation in UC CT active site
[6] = pH 8.0, mutation in AH N domain active site

B1: KlUAΔBCCP (Kluyveromyces lactis urea amidolyase residues 1-1741, BCCP domain removed) (domain or fragment, UniProt Q6CP22 1-1741, looked up)
chain: MESTLGWSVQDWLSFHSKSTPTKSLELLENLLKSQKPAPEDPAWISLIPVEDLHHQWNILQSKSNKEELPLYGVPIAVKDNIDYKGLPTTAACPSYLYQPTRDSYVVELLRDAGAVVIGKTNLDQFATGLVGTRSPYGKTPCVFNDKYVSGGSSAGSASVVGRGIVPLSLGTDTAGSGRVPAALNNLIGLKPTKGAFSCRGVVPACKSLDCVSVFALNLSDAEIAFKVMNKPDLLEDEYSREFPKNPISQYPKDLTIAIPKEVPWFGETENPKLYTKAVASLKNTGAKIVVVDFEPLLELARCLYEGAWVAERYCATRDFLATNPPESSLDETVVNIIKGAVKFDAADAFKFEYKRQGILQKVNLLLKDIDVLCVPTCPLNPKLEEVAQEPVLVNSRQGTWTNFVNLADLAALAVPSGFRSDGLPNGITLIGKKFSDYALLDLAKRFFSVAFPNNSRTYGKFVDRRITVEDELDGPSKDTLNGVKLAVVGAHLKGLPLHWQLQKCNATYLSSPKTSNNYKLYALPKVGPVLKPGLRRVNDGTGSQIQLEVYSVPYDRFGDFIAMVPEPLGIGSVELESGEWVKSFICEEFGYTQQGTVDITKFGGFKPYIEHIQVTEAQKKKPFETVLIANRGEIAVRIMKTLKRMGIKSVAVYSDPDKYSQHVTDADFSVALHGRTAAETYLDIDKIINAAKKTGAQAIIPGYGFLSENADFSDRCSQENIVFVGPSGDAIRKLGLKHSAREIAERAKVPLVPGSGLIKDAKEAKEVAKKLEYPVMVKSTAGGGGIGLQKVDSEDDIERVFETVQHQGKSYFGDAGVFMERFVNNARHVEIQMMGDGFGKAIAIGERDCSLQRRNQKVIEETPAPNLPEATRAKMRAASERLGSLLKYKCAGTVEFIYDEQRDEFYFLEVNARLQVEHPITEMVTGLDLVEWMLRIAANDSPDFDNTKIEVSGASIEARLYAENPVKDFRPSPGQLTSVSFPSWARVDTWVKKGTNVSAEYDPTLAKIIVHGKDRNDAIMKLNQALNETAVYGCITNIDYLRSIASSKMFKEAKVATKVLDSFDYKPCAFEVLAPGANTSVQDYPGRTGYWRIGVPPSGPMDSYSFRLANRVVGNNSKSPALEITLNGPKLLFHTETVIAVSGGTVSCTLNDAQIAQNEPIEVKRGDILSVGKVTVGCRAYLSIRGGIDVPEYLGSRSTFAMGNMGGYNGRILKLGDVLFLNQPELSVSSLPAPDFEPQAAPKSLLPTLSTNKDWKIGVTCGPHGSIDLFKEEYIEQFFNDKWKVHYNSNRFGVRLIGPKPKWARSDGGEAGLHPSNAHDYVYSLGAINFTGDEPVIITCDGPSLGGFVCQAVVAEAELWKVGQLTPGDTIQFVPLSYGVARQLKESQDKSIDNFEEGSLLELSDDKILPKYENPILAVLPKKSDLSPKVTYRQAGDRYILVEYGELEFDLNICYRINRLIHQVERHQTVGIVEMSQGVRSVLIEFDGSKINQKALLKCLIAYESEIQFDKNWNVKSKIFKLPMAFEDSKTLDCVTRYRETIRSEAPWLPNNVDFIADVNDIDRNDVKNMLYSAKFMVLGLGDVFLGSPCAVPLDPRHRYLGTKYNPSRTYTARGVVGIGGMYMCIYNAEGSPGGYQLVGRTITAWDKLVIGDHPIDHPWLLTPFDQVEFYPVTEEELEVIIEDNDNGKFKIDVEESIFDHKEYLAWINENIDSIVAFQEAQGGEKADEFARLIQVANAE
notes: urea amidolyase of Kluyveromyces lactis, residues 1-1741 (stop codon inserted after base pair 5223); lacks the C-terminal BCCP domain; monomer 190 kDa; also called KIUAΔBCCP; source: E. coli BL21 (DE3) Star, purified (Ni-NTA, anion exchange, size exclusion)
- stoichiometry N [1]: 2

B2: Kluyveromyces lactis urea amidolyase, full length (enzyme, UniProt Q6CP22 1-1829, looked up)
chain: MESTLGWSVQDWLSFHSKSTPTKSLELLENLLKSQKPAPEDPAWISLIPVEDLHHQWNILQSKSNKEELPLYGVPIAVKDNIDYKGLPTTAACPSYLYQPTRDSYVVELLRDAGAVVIGKTNLDQFATGLVGTRSPYGKTPCVFNDKYVSGGSSAGSASVVGRGIVPLSLGTDTAGSGRVPAALNNLIGLKPTKGAFSCRGVVPACKSLDCVSVFALNLSDAEIAFKVMNKPDLLEDEYSREFPKNPISQYPKDLTIAIPKEVPWFGETENPKLYTKAVASLKNTGAKIVVVDFEPLLELARCLYEGAWVAERYCATRDFLATNPPESSLDETVVNIIKGAVKFDAADAFKFEYKRQGILQKVNLLLKDIDVLCVPTCPLNPKLEEVAQEPVLVNSRQGTWTNFVNLADLAALAVPSGFRSDGLPNGITLIGKKFSDYALLDLAKRFFSVAFPNNSRTYGKFVDRRITVEDELDGPSKDTLNGVKLAVVGAHLKGLPLHWQLQKCNATYLSSPKTSNNYKLYALPKVGPVLKPGLRRVNDGTGSQIQLEVYSVPYDRFGDFIAMVPEPLGIGSVELESGEWVKSFICEEFGYTQQGTVDITKFGGFKPYIEHIQVTEAQKKKPFETVLIANRGEIAVRIMKTLKRMGIKSVAVYSDPDKYSQHVTDADFSVALHGRTAAETYLDIDKIINAAKKTGAQAIIPGYGFLSENADFSDRCSQENIVFVGPSGDAIRKLGLKHSAREIAERAKVPLVPGSGLIKDAKEAKEVAKKLEYPVMVKSTAGGGGIGLQKVDSEDDIERVFETVQHQGKSYFGDAGVFMERFVNNARHVEIQMMGDGFGKAIAIGERDCSLQRRNQKVIEETPAPNLPEATRAKMRAASERLGSLLKYKCAGTVEFIYDEQRDEFYFLEVNARLQVEHPITEMVTGLDLVEWMLRIAANDSPDFDNTKIEVSGASIEARLYAENPVKDFRPSPGQLTSVSFPSWARVDTWVKKGTNVSAEYDPTLAKIIVHGKDRNDAIMKLNQALNETAVYGCITNIDYLRSIASSKMFKEAKVATKVLDSFDYKPCAFEVLAPGANTSVQDYPGRTGYWRIGVPPSGPMDSYSFRLANRVVGNNSKSPALEITLNGPKLLFHTETVIAVSGGTVSCTLNDAQIAQNEPIEVKRGDILSVGKVTVGCRAYLSIRGGIDVPEYLGSRSTFAMGNMGGYNGRILKLGDVLFLNQPELSVSSLPAPDFEPQAAPKSLLPTLSTNKDWKIGVTCGPHGSIDLFKEEYIEQFFNDKWKVHYNSNRFGVRLIGPKPKWARSDGGEAGLHPSNAHDYVYSLGAINFTGDEPVIITCDGPSLGGFVCQAVVAEAELWKVGQLTPGDTIQFVPLSYGVARQLKESQDKSIDNFEEGSLLELSDDKILPKYENPILAVLPKKSDLSPKVTYRQAGDRYILVEYGELEFDLNICYRINRLIHQVERHQTVGIVEMSQGVRSVLIEFDGSKINQKALLKCLIAYESEIQFDKNWNVKSKIFKLPMAFEDSKTLDCVTRYRETIRSEAPWLPNNVDFIADVNDIDRNDVKNMLYSAKFMVLGLGDVFLGSPCAVPLDPRHRYLGTKYNPSRTYTARGVVGIGGMYMCIYNAEGSPGGYQLVGRTITAWDKLVIGDHPIDHPWLLTPFDQVEFYPVTEEELEVIIEDNDNGKFKIDVEESIFDHKEYLAWINENIDSIVAFQEAQGGEKADEFARLIQVANAELKKSGDDKPQDVEEYPDDAELLYSEYTGRFWKPVAAVGDHVEAGDGVIIIEAMKTEMVVGATKSGKVYKILHKNGDMVEAGDLVAVIV
notes: urea amidolyase (AH domain followed by UC domain: BC, CT, BCCP) of Kluyveromyces lactis, gene amplified from the K. lactis genome; monomer 202 kDa; also called KlUA; full-length KlUA; source: expression and purification followed protocols reported previously [14,17]; purified
- Km [2]: 0.36 ± 0.037 mM
- kcat [2]: 34.2 ± 0.683 s⁻¹
- kcat/Km [2]: 94900 ± 11700 M⁻¹ s⁻¹
- Km ([3]; pH 8.0): 0.255 ± 0.018 mM
- kcat ([3]; pH 8.0): 13.9 ± 0.183 s⁻¹
- kcat/Km ([3]; pH 8.0): 54600 ± 4600 M⁻¹ s⁻¹
- stoichiometry N [1]: 2

B3: KlUA (Kluyveromyces lactis NRRL Y-1140; G559E/G572E) (protein)
chain: B2 chain with G559E, G572E
notes: full-length enzyme, AH + UC domains; recombinant in E. coli BL21(DE3) Star (pET28A, nickel column); homodimer, monomer 202 kDa
- Km ([2]; mutation at AH dimer interface): 1.04 ± 0.183 mM
- kcat ([2]; mutation at AH dimer interface): 7.85 ± 0.367 s⁻¹
- kcat/Km ([2]; mutation at AH dimer interface): 7550 ± 1680 M⁻¹ s⁻¹
- Km [3, 4]: 0.361 ± 0.032 mM
- kcat [3, 4]: 3 ± 0.0533 s⁻¹
- kcat/Km [3, 4]: 8320 ± 900 M⁻¹ s⁻¹

B4: KlUA (Kluyveromyces lactis NRRL Y-1140; K1605A) (protein)
chain: B2 chain with K1605A
notes: as for B3
- Km [3, 5]: 0.299 ± 0.039 mM
- kcat [3, 5]: 1.33 ± 0.0333 s⁻¹
- kcat/Km [3, 5]: 4450 ± 683 M⁻¹ s⁻¹

B5: KlUA (Kluyveromyces lactis NRRL Y-1140; S177A) (protein)
chain: B2 chain with S177A
notes: as for B3
- Km [3, 6]: 0.203 ± 0.020 mM
- kcat [3, 6]: 0.785 ± 0.0133 s⁻¹
- kcat/Km [3, 6]: 3870 ± 450 M⁻¹ s⁻¹
